# Data taken from patent US20230235054A1 (BIOATLA, published 2023).
# T1: cynoNectin4-mFc (cyno, UniProt A0A2K5WES1 32-349)
# T1 construct: Immobilized on the SPR chip; also called cyanoNectin4; not shown: mFc (mouse Fc)
# T1 sequence: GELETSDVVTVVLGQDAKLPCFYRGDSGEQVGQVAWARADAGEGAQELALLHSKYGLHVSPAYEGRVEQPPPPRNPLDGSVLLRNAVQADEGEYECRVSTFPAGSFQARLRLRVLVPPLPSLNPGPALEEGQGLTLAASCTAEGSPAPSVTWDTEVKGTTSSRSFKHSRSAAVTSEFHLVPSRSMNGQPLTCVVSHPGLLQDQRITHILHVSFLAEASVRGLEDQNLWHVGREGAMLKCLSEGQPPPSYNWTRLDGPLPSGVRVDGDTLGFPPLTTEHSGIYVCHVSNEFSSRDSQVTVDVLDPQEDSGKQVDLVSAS
# T2: huNectin4-His (human, UniProt Q96NY8 32-349)
# T2 construct: Immobilized on the SPR chip; also called humanNectin4; human Nectin4; not shown: His tag
# T2 sequence (looked up): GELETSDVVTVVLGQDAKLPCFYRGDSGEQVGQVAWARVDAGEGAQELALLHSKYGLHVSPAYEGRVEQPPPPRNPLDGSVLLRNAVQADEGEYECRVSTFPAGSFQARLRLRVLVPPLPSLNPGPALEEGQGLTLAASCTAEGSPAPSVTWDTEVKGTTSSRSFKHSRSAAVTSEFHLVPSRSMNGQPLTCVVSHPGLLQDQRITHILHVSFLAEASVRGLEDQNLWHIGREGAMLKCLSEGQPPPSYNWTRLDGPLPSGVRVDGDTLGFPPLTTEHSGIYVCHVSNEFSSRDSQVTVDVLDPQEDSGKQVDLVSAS
# T3: recombinant human Nectin4 antigen (human, UniProt Q96NY8 32-349)
# T3 construct: construct not described
# T3 sequence (looked up): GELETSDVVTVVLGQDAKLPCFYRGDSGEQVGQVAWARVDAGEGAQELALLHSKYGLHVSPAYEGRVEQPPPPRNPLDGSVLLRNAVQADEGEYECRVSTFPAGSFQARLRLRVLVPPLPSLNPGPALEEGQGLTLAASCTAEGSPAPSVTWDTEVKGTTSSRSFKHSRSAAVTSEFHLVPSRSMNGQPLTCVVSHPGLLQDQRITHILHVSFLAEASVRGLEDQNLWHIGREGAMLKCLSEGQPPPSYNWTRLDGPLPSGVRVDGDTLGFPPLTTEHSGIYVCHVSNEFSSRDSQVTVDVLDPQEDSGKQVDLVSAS
# T4: cynoNectin4 antigen (cynomolgus (cyno), UniProt A0A2K5WES1 32-349)
# T4 construct: construct not described; also called cynomolgus (cyno) Nectin-4
# T4 sequence: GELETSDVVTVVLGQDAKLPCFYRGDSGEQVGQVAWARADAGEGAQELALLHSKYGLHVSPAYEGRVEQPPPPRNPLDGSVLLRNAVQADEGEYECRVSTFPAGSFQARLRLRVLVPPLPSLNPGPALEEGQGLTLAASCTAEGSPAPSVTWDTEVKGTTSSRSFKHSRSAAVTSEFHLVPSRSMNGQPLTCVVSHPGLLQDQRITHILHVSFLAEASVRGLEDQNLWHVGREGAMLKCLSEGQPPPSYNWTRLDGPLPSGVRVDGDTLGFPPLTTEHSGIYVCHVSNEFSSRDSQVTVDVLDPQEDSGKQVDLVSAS
# How the values were obtained:
# cynoNectin4-mFc [1] = biological target: T1, cynoNectin4-mFc; assay: SPR, cynoNectin4-mFc immobilized, pH 7.4
# Method: (§1) Binding kinetics of anti-Nectin4 antibodies were measured by surface plasmon resonance using a SPR2/4 instrument (Sierra Sensors, Hamburg, Germany) and flat amine sensor chips. The SPR sensor contained four flow cells (FC1-FC4), each of which was addressed individually or in groups. huNectin4-His was immobilized in FC2, and cynoNectin4-mFc in FC4. No protein was immobilized in FC1 and FC3 which were used as control surfaces for FC2 and FC4, respectively.
# (§2) All injections were done at a flow rate of 25 μL/min at 25° C. The sensor surface was activated with 1-ethyl-3-(3-dimethylaminopropyl)-carbodiimide (EDC) and N-hydroxysuccinimide (NHS) (200 mM/50 mM) for 480 seconds. HuNectin4-His (2 μg/mL in 10 mM NaAc, pH4.5) was injected for 480s and the surface was inactivated by injecting 1M ethanolamine-HCl for 480s. CynoNectin4 was immobilized using the same conditions as described for huNectin4-His, except that the cynoNectin4 was diluted into 10 mM NaAc buffer having pH 5.0. The control surface was activated and deactivated using the same conditions, but without injecting protein. PBST buffer (PBS pH 7.4 with 0.05% TWEEN20™) was used as running buffer for the surface preparation. The running solution was switched to PBST with 30 mM sodium bicarbonate with the pH adjusted as indicated in the figures before the analyte injections. The instrument was equilibrated with the running solution for one hour before the first analyte injection.
# (§3) The off-rate was measured for 360s. The chip surface was regenerated after each cycle of interaction analysis by injecting 6 μL of 10 mM glycine (pH 2.0). Flow cells 1 and 3 without immobilized protein were used as control surfaces for reference subtraction.
# huNectin4-His [2] = biological target: T2, huNectin4-His; assay: SPR, huNectin4-His immobilized, pH 7.4
# Method: as §1, §2, §3
# cynoNectin4-mFc [3] = biological target: T1, cynoNectin4-mFc; assay: SPR, cynoNectin4-mFc immobilized, pH 6.0
# Method: as §1, §2, §3
# [4] = biological target: T3, recombinant human Nectin4 antigen; assay: ELISA, coated antigen, PSB pH 6.0
# Method: (§4) 1) Coat ELISA plates with 100 μL of 1 μg/mL recombinant human Nectin4 antigen or cynoNectin4 antigen in carbonate-bicarbonate coating buffer. […] 2) Cover plates with sealing film and incubate overnight at 4° C. [0444] 3) Decant plates and tap out residual liquid on a stack of paper towels. [0445] 4) Wash wells twice by dispensing 200 μL of pH 6.0 or pH 7.4 ELISA incubation buffer to the wells and completely aspirate the contents. [0446] 5) Add 200 μL of pH 6.0 or pH 7.4 ELISA incubation buffer to the wells. Cover with sealing film and place the plate onto a plate shaker set to 50 rpm for 60 minutes at room temperature. [0447] 6) Decant plates and tap out residual liquid on a stack of paper towels. […] 7) Serially dilute test articles in 3-fold dilutions starting at 3000 ng/mL in pH 6.0 or pH 7.4 ELISA incubation buffer. […] 8) Add 100 μL/well of diluted test articles to the plates [0450] 9) Cover with sealing film and place the plates onto a plate shaker set to 50 rpm for 60 minutes at room temperature. [0451] 10) Decant plates and tap out residual liquid on a stack of paper towels. [0452] 11) Wash wells three times by dispensing 200 μL of pH 6.0 or pH 7.4 ELISA wash buffer to the wells and completely aspirate the contents. […] 12) Dilute the HRP secondary antibody at 1:2500 in pH 6.0 or pH 7.4 ELISA incubation buffer. [0454] […] 14) Cover with sealing film and place the plates onto a plate shaker set to 50 rpm for 60 minutes at room temperature. […] 15) Decant plates and tap out residual liquid on a stack of paper towels. […] 16) Wash wells three times by dispensing 200 μL of pH 6.0 or pH 7.4 ELISA wash buffer to the wells and completely aspirate the contents. [0458] 17) Dispense 50 μL per well of the TMB substrate solution into all wells of the plates.
# [5] = biological target: T3, recombinant human Nectin4 antigen; assay: ELISA, coated antigen, PSB pH 7.4
# Method: 1) Coat ELISA plates with 100 μL of 1 μg/mL recombinant human Nectin4 antigen or cynoNectin4 antigen in carbonate-bicarbonate coating buffer. […] 2) Cover plates with sealing film and incubate overnight at 4° C. [0444] 3) Decant plates and tap out residual liquid on a stack of paper towels. [0445] 4) Wash wells twice by dispensing 200 μL of pH 6.0 or pH 7.4 ELISA incubation buffer to the wells and completely aspirate the contents. [0446] 5) Add 200 μL of pH 6.0 or pH 7.4 ELISA incubation buffer to the wells. Cover with sealing film and place the plate onto a plate shaker set to 50 rpm for 60 minutes at room temperature. [0447] 6) Decant plates and tap out residual liquid on a stack of paper towels. […] 7) Serially dilute test articles in 3-fold dilutions starting at 3000 ng/mL in pH 6.0 or pH 7.4 ELISA incubation buffer. […] 8) Add 100 μL/well of diluted test articles to the plates [0450] 9) Cover with sealing film and place the plates onto a plate shaker set to 50 rpm for 60 minutes at room temperature. [0451] 10) Decant plates and tap out residual liquid on a stack of paper towels. [0452] 11) Wash wells three times by dispensing 200 μL of pH 6.0 or pH 7.4 ELISA wash buffer to the wells and completely aspirate the contents. […] 12) Dilute the HRP secondary antibody at 1:2500 in pH 6.0 or pH 7.4 ELISA incubation buffer. [0454] […]
# huNectin4-His [6] = biological target: T2, huNectin4-His; assay: SPR, huNectin4-His immobilized, pH 6.0
# Method: as §1, §2, §3
# [7] = biological target: T3, recombinant human Nectin4 antigen; assay: ELISA, coated antigen, PSB pH 7.4; remark: listed apart in the source
# Method: as §4
# cynoNectin4 antigen = biological target: T4, cynoNectin4 antigen; assay: ELISA, coated antigen, PSB pH 7.4
# Method: as §4
Kd (cynoNectin4-mFc [1]) [nM],Kd (huNectin4-His [2]) [nM],Kd (cynoNectin4-mFc [3]) [nM],EC50 [4] [µg/mL],EC50 [5] [µg/mL],Kd (huNectin4-His [6]) [nM],EC50 [7] [µg/mL],EC50 (cynoNectin4 antigen) [µg/mL],koff (cynoNectin4-mFc [1]) [s⁻¹],kon (cynoNectin4-mFc [1]) [M⁻¹ s⁻¹],koff (huNectin4-His [2]) [s⁻¹],kon (huNectin4-His [2]) [M⁻¹ s⁻¹],koff (cynoNectin4-mFc [3]) [s⁻¹],kon (cynoNectin4-mFc [3]) [M⁻¹ s⁻¹],koff (huNectin4-His [6]) [s⁻¹],kon (huNectin4-His [6]) [M⁻¹ s⁻¹],Binder
0.244,0.127,0.311,0.0216,0.0216,0.149,0.0202,0.0128,,,,,,,,,"BAP-143-wildtype (antibody, V domains shown, 150 kDa used in SPR; also called BAP143-00-00; benchmark (BM)) VH: EVQLVESGGGLVQPGGSLRLSCAASGFTFSSYNMNWVRQAPGKGLEWVSYISSSSSTIYYADSVKGRFTISRDNAKNSLSLQMNSLRDEDTAVYYCARAYYYGMDVWGQGTTVTVSS VL: DIQMTQSPSSVSASVGDRVTITCRASQGISGWLAWYQQKPGKAPKFLIYAASTLQSGVPSRFSGSGSGTDFTLTISSLQPEDFATYYCQQANSFPPTFGGGTKVEIK"
0.126,0.0067,0.207,0.0368,0.133,0.0944,,0.0282,8.26e-05,655000,5.21e-06,778000,0.000579,2.8e+06,0.00033,3.5e+06,"BAP-143-06-24-16 (antibody, V domains shown, Used as a conjugate with a linker payload (CAB ADC)) VH: EVQLVQSGAEVKKPGATVKISCKVSGFTFSSYNMNWIRQSPSRGLEWLGYISSSSSTIYYADSVKGRFTISRDNSKNTLYLQMNSLRAEDTAVYYCARAYYYGDDVWGQGTLVTVSS VL: DIQMTQSPSSVSASVGDRVTITCHASQGISGWLAWYQQKPGKAPKFLIYAASTLQSGVPSRFSGSGSGTDFTLTISSLQPEDFATYYCQQANSFPPTFGGGTKVEIK"
